Molecular target: T1, ROCK1 kinase domain (residue 1-415) protein (human, UniProt Q13464 1-415)
T1 construct: ROCK1 kinase domain, residues 1-415, expressed in Sf9 cells; source: Spodoptera frugiperda cells (Sf9)
Test: SPR; Biacore T200; ROCK1 kinase domain immobilised on CM5 chip by amine coupling (3400 RU); full-length TRIM40 injected at eight concentrations, 30 μl/min, HBS-EP+ buffer (10 mM HEPES, 150 mM NaCl, 3 mM EDTA, 0.05% P20), 25 °C
Settings: both partners purified

T1 sequence (Q13464 1-415): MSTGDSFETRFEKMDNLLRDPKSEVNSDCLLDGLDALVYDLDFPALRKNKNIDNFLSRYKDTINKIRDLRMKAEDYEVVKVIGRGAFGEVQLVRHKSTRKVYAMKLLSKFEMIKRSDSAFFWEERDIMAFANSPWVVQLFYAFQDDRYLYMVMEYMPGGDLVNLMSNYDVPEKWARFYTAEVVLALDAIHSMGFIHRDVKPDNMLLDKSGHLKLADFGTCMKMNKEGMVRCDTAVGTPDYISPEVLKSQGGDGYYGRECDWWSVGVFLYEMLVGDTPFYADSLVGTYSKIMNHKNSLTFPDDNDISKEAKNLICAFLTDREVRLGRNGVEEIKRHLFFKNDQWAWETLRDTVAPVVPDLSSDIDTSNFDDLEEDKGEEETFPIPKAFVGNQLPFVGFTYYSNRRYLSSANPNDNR

Kd: 2250 nM
B1: Full length TRIM40 protein (recombinant, for SPR) (natural protein, human, UniProt Q6P9F5 1-258, looked up)
chain: MIPLQKDNQEEGVCPICQESLKEAVSTNCGHLFCRVCLTQHVEKASASGVFCCPLCRKPCSEEVLGTGYICPNHQKRVCRFCEESRLLLCVECLVSPEHMSHHELTIENALSHYKERLNRRSRKLRKDIAELQRLKAQQEKKLQALQFQVDHGNHRLEAGPESQHQTREQLGALPQQWLGQLEHMPAEAARILDISRAVTQLRSLVIDLERTAKELDTNTLKNAGDLLNRSAPQKLEVIYPQLEKGVSELLLQPPQKL
notes: full length TRIM40 expressed in E. coli BL21 (DE3); source: Escherichia coli BL21 (DE3)

Source: paper PMC9908899, “TRIM40 is a pathogenic driver of inflammatory bowel disease subverting intestinal barrier integrity” (Nature Communications, 2023)
